In publication PMC5207208 (Science (New York, N.Y.), 2016):

B1: Nup145N fragment (residues 606–683) (domain or fragment, Chaetomium thermophilum, UniProt G0SAK3 606-683, looked up)
chain: DDKIQNPGPLATPLSGKAKVKSRSILPMYKLSPANASRLVTTPQKRAYGFSFSAYGSPTSPSSSASSTPGAFGQSILS
B2: Nup145N fragment (residues 606–750) (domain or fragment, Chaetomium thermophilum, UniProt G0SAK3 606-750, looked up)
chain: DDKIQNPGPLATPLSGKAKVKSRSILPMYKLSPANASRLVTTPQKRAYGFSFSAYGSPTSPSSSASSTPGAFGQSILSSSINRGLNKSISASNLRRSLNVEDSILQPGAFSANSSMRLLGGPGSHKKLVINKDMRTDLFSPPNKD

Legend:
[1] = biological target: Nup192 (Chaetomium thermophilum, UniProt G0S4T0 1-1756); assay: SEC-MALS
Chain of Nup192 (G0S4T0 whole entry): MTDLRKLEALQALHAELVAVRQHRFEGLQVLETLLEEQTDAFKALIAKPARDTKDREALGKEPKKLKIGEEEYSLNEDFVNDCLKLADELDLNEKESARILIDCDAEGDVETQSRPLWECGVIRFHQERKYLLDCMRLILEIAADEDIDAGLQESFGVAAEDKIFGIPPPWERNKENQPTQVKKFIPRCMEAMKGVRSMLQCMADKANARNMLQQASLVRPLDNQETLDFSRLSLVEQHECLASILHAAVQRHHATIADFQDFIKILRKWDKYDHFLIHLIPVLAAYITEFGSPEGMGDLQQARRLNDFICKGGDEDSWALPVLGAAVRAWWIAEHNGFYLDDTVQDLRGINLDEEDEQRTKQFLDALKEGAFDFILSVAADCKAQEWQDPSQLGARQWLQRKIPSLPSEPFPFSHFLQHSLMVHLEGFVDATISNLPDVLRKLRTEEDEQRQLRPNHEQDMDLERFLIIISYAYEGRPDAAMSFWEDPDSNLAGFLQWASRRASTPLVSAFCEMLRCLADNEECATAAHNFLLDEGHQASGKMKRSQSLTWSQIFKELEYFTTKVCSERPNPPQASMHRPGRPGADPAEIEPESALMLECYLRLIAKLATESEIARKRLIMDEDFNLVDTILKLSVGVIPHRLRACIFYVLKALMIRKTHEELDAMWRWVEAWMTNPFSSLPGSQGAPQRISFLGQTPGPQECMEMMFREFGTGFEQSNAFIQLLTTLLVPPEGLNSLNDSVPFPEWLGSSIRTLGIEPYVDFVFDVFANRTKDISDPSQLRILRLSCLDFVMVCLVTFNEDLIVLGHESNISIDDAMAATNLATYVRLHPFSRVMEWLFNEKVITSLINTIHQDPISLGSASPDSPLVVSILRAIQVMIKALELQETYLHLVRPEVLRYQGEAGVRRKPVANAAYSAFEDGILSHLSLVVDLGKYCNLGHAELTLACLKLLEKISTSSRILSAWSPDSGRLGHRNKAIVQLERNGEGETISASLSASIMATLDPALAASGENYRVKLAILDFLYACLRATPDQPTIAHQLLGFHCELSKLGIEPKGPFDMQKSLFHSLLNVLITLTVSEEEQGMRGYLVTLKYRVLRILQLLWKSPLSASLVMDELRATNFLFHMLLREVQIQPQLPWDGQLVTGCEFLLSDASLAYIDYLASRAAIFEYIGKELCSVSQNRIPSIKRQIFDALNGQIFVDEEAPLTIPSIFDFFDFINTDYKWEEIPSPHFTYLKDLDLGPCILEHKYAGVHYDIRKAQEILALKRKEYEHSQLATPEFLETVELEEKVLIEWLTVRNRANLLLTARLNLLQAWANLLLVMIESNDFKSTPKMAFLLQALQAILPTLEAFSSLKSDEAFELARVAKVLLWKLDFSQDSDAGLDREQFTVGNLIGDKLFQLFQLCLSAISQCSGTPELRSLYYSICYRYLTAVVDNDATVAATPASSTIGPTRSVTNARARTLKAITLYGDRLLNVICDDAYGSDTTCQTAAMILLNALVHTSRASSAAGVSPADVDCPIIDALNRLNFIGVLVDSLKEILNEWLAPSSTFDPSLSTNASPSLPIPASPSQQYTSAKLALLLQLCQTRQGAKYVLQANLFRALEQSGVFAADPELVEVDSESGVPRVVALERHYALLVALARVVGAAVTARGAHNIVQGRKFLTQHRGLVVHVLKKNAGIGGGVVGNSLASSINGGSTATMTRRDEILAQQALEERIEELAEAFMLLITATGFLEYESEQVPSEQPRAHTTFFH

[2] = biological target: Nup188 (Chaetomium thermophilum, UniProt G0SFH5 1-1858); assay: SEC-MALS
Chain of Nup188 (G0SFH5 whole entry): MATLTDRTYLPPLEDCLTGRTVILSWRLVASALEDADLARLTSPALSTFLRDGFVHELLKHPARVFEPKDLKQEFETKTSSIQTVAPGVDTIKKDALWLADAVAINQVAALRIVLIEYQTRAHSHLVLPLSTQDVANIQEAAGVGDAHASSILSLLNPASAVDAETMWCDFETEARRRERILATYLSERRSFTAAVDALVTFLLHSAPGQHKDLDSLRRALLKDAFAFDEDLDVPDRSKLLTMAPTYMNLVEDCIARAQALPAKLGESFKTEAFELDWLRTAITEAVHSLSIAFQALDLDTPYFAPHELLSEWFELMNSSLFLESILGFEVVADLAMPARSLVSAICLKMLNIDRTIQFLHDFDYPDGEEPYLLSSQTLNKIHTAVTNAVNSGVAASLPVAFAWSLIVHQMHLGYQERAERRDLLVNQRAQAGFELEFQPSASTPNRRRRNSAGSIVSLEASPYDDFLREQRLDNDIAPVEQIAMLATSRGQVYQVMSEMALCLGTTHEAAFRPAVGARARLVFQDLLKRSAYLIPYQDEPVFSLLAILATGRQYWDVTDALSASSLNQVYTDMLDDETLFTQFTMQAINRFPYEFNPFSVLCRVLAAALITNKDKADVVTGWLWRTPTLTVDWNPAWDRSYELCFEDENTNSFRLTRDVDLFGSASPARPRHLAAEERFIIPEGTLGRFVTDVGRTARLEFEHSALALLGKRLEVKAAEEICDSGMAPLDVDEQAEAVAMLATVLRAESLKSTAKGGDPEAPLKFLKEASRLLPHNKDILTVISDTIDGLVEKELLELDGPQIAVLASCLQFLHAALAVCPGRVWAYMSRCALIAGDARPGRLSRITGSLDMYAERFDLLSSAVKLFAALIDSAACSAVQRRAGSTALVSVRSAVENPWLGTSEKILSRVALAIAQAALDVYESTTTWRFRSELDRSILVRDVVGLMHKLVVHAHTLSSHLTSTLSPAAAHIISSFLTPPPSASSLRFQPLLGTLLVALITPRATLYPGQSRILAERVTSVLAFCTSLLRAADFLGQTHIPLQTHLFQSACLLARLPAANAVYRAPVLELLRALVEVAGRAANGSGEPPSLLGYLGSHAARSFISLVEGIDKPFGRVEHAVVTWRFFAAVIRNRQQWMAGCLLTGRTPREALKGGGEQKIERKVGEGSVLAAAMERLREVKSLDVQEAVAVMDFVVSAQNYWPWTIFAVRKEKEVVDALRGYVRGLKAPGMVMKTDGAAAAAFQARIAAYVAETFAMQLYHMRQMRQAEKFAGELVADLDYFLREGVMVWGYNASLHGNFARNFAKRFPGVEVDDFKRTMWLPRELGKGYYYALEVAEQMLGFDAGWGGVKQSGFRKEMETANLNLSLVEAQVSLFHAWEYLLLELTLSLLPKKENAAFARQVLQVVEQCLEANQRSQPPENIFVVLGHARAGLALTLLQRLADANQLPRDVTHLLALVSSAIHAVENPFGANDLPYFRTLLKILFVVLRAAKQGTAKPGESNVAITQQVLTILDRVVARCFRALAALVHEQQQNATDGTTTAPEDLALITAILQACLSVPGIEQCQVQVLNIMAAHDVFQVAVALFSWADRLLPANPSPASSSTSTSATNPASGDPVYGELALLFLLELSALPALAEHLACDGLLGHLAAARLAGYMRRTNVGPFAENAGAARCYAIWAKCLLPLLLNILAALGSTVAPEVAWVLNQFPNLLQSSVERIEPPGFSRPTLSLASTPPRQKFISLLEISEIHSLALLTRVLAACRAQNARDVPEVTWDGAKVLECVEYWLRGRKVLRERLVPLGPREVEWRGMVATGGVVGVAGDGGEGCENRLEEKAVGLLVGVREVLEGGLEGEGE

binding result [1] | binding result [2] | Binder
binds |  | B1
 | binds | B2
binds |  | EWEAQRKRIYQHFGIK (peptide, UniProt G0S024 286-301, looked up) [Nic96 fragment (residues 286–301)]
 | binds | DFDAFLEENVTLEWEAQRKRIYQHFGIK (peptide, UniProt G0S024 274-301, looked up) [Nic96 fragment (residues 274–301)]
